Test results reported in PMC12820099, “CTCF couples long-range loop extrusion and diffusion to mediate a diverse Igκ repertoire” (Nature Communications, 2025).

B1: WAPL (natural protein, mouse (endogenous in v-Abl pro-B cells), UniProt Q65Z40 1-1200, looked up)
chain: MTSRFGKTYSRKGGNGSSKFDEVFSNKRTTLSTKWGETTFMAKLGQKRPNFKPDIQEIPKKPKVEEEDTGDPFGFDSDDESLPVSSKNLAQGKGSSYSESSEAAQLEEVTSVFEANSKCSHVVGEDSFASDRCLLVEDTLIGKEKSISRIPEDNANKSSCTKLLTSDKVENFSEEHEKNSHHFHKNAEDSTKKPNAETAVASEYKADETKETNDTWNSQSGKRTESPSESCPVKGSVRTGLYEWDNDFEDIRSEDCILSLDNESLLEMKDEDLKNRIGGLENLNETFEEDIIQSVLRPSNCRTYCRANKARSSQGASNFDKLMDGTSQSLAKANSESSKDGLNQAKKGSASCGTSFRGTVGRTRDYTVLHPSCLSVCNVTIQDTMERSMDEFTASTPADLGEAGRLRKKADIATSKTTTRFRPSNTKSKKDVKLEFFGFEDHDETGGDEGGSGSSNYKIKYFGFDDLSESEDDDDDDCQVERKKDKKRTKTAPSPSQQPPPESSDNSQDSQSSTNNAENLDFTEDLPGVPESVKKPISKQGDKSKENTRKIFSGPKRSPTKAVYNARHWNHPDSEELPGPPIAKPQRVTVRLSSKEPNQKDDGVFKAPAPPLKVIKTVTIPTQPYQEIVTALKCRKEDKELYTVVQHVKHFNDVVEFGENQEFTDDIEYLLSGLKSTQPLNTRCLSVISLATKCAMPSFRMHLRAHGMVAMVFKTLDDSQHHQNLSLCTAALMYILSRDRLNMDLDRASLDLMIRLLELEQDASSAKLLNEKDMNKIKEKIRRLCETVHNKHLDLENITTGHLAMETLLSLTSKRAGDWFKEELRLLGGLDHIVDKVKECVDHLSRDDEDEEKLVASLWGAERCLRVLESVTVHNPENQSYLIAYKDSQLIISSAKALQHCEDLIQQYNRAENSICVADSNPLPYQNVTNHVGKAVEDCMRAIIGVLLNLTNDNEWGSTKTGEQEGLIGTAMNCVLQVPKYLPQEQRFDIRVLGLGLLINLVEYSARNRHCLVNMQTSCSFDSSFSSGEGDHSLRLAGQVHAVQALVQLFLERERAAQLAESKTDELIKDAPTTQHDKSGEWQETSGEIQWVSTEKTDGAEEKQKKEEEDEELDLNKALQHAGKHMEDCIVASYTALLLGCLCQESPINVTTVREYLPEGDFSIMTEMLKKFLSFMNLTCAVGTTGQKSISRVIEYLEHC
notes: WAPL, mouse, endogenous, untagged in the WT and CTCF-Nm lines used for the IP; source: endogenous, chromatin fraction of G1 arrested v-Abl pro-B cells (WT and CTCF-Nm)
B2: CTCF(Y226A/F228A) (natural protein, mouse (endogenous in v-Abl pro-B cells), UniProt Q61164 1-736, looked up)
chain: MEGEAVEAIVEESETFIKGKERKTYQRRREGGQEEDACHLPQNQTDGGEVVQDVNSSVQMVMMEQLDPTLLQMKTEVMEGTVAPEAEAAVDDTQIITLQVVNMEEQPINIGELQLVQVPVPVTVPVATTSVEELQGAYENEVSKEGLAESEPMICHTLPLPEGFQVVKVGANGEVETLEQGELPPQEDSSWQKDPDYQPPAKKTKKTKKSKLRYTEEGKDVDVSVADAEEEQQEGLLSEVNAEKVVGNMKPPKPTKIKKKGVKKTFQCELCSYTCPRRSNLDRHMKSHTDERPHKCHLCGRAFRTVTLLRNHLNTHTGTRPHKCPDCDMAFVTSGELVRHRRYKHTHEKPFKCSMCDYASVEVSKLKRHIRSHTGERPFQCSLCSYASRDTYKLKRHMRTHSGEKPYECYICHARFTQSGTMKMHILQKHTENVAKFHCPHCDTVIARKSDLGVHLRKQHSYIEQGKKCRYCDAVFHERYALIQHQKSHKNEKRFKCDQCDYACRQERHMIMHKRTHTGEKPYACSHCDKTFRQKQLLDMHFKRYHDPNFVPAAFVCSKCGKTFTRRNTMARHADNCAGPDGVEGENGGETKKSKRGRKRKMRSKKEDSSDSEENAEPDLDDNEEEEEPAVEIEPEPEPQPQPPPPPQPVAPAPPPAKKRRGRPPGRTNQPKQNQPTAIIQVEDQNTGAIENIIVEVKKEPDAEPAEGEEEEAQAATTDAPNGDLTPEMILSMMDR
notes: CTCF, mouse, endogenous, with the Y226A/F228A mutation of the N-terminal YDF motif; also called CTCF-Nm; source: endogenous locus, homozygous CRISPR/Cas9 knock-in, chromatin fraction of G1 arrested CTCF-Nm v-Abl pro-B cells

Biological target: T1, SMC3 (mouse (endogenous in v-Abl pro-B cells), UniProt Q9CW03 1-1217)
T1 construct: SMC3, mouse, endogenous; precipitated with an SMC3 antibody from the solubilised chromatin fraction; Bait of the IP; it sits in the cohesin complex, so partners may touch other cohesin subunits rather than SMC3 itself; also called cohesin (SMC3 immunoprecipitate); source: endogenous, chromatin fraction of G1 arrested v-Abl pro-B cells (WT and CTCF-Nm)
Test: affinity purification with mass spectrometry; SMC3 antibody IP (Protein A beads, overnight, 100 mM NaCl) from Benzonase-solubilised chromatin fraction of G1 arrested WT and CTCF-Nm v-Abl pro-B cells; label-free qMS, protein intensities normalised to chromatin-bound SMC3; IgG isotype control
Details: partners not purified

T1 sequence (Q9CW03 whole entry): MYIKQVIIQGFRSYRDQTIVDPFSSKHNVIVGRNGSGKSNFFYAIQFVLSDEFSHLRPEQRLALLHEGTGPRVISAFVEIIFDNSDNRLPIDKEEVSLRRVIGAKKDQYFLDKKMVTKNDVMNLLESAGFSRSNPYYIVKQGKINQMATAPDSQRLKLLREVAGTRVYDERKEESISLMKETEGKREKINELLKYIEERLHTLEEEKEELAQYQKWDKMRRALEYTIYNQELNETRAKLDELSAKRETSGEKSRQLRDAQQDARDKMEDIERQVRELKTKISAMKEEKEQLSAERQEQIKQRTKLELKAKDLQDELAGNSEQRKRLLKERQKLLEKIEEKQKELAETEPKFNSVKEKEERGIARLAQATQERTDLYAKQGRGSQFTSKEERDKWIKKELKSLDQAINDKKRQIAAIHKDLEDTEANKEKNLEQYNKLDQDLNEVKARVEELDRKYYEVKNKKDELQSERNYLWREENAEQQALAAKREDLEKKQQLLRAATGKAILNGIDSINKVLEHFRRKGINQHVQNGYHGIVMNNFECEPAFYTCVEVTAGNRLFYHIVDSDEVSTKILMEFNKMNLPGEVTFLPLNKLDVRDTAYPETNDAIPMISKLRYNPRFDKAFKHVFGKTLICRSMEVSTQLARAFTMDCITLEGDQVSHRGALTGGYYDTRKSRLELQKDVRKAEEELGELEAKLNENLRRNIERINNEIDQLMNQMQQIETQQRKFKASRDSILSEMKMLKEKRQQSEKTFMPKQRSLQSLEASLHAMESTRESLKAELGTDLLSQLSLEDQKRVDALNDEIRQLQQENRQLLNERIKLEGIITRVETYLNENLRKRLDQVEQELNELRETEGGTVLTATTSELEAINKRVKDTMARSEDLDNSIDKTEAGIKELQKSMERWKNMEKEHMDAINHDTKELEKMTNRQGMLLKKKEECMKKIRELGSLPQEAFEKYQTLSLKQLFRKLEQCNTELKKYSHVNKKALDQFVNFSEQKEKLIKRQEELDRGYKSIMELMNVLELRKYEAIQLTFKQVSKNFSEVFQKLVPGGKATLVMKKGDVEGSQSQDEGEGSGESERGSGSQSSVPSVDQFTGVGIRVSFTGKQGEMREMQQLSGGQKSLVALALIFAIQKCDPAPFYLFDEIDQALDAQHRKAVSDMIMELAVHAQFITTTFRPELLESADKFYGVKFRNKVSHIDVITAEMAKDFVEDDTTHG

Binder | fold increase of the interaction in CTCF-Nm cells against WT cells [fold] | fold reduction of the interaction against WT CTCF [fold]
B1 | 1.9 | 
B2 |  | 3
